Data from patent publication US20250019430A1 (SEOUL NATIONAL UNIVERSITY HOSPITAL, published 2025).

T1: resistin antigen (UniProt Q9HD89 19-108, limits assumed)
T1 construct: Used for the Octet assays and the monophage ELISAs, where only 'resistin antigen' is printed; tags not known; also called resistin antigen protein
T1 sequence (looked up): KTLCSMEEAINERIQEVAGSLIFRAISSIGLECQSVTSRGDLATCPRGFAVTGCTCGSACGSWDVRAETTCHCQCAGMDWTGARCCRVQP

T2: murine resistin (#450-28) from peprotech (mouse, UniProt Q99P87 21-114)
T2 construct: Bought; also called mouse antigen; mouse resistin antigen
T2 sequence (looked up): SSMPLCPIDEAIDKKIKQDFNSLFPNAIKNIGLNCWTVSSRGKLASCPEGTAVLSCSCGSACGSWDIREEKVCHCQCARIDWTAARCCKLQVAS


How the values were obtained:
resistin antigen = molecular target: T1, resistin antigen; test: Octet, resistin antigen on the biosensor, antibody in solution
Source text: To investigate the affinity between the antibody and the resistin antigen, the Octet (Forte bio) system, which enables real-time investigation of ligand-receptor binding using a biosensor, was used. The system is an instrument that binds resistin antigen protein to a biosensor, flows antibody through it, and optically analyzes the degree of antibody binding to the antigen bound to the sensor, measuring the level of antibody binding to the antigen with high sensitivity at the light wavelength level. The affinity for the resistin antigen was expressed as Kₒₙ (association constants, binding rate) and Kdis (dissociation constants, dissociation rate) between the receptor and ligand, and KD (equilibrium dissociation constant) for the reaction of binding and dissociation.

[1] = molecular target: T2, murine resistin (#450-28) from peprotech; test: ELISA, coated murine resistin
Description: The mouse antigen was murine resistin (#450-28) from peprotech. Mouse antigen was diluted to 10 nM in DPBS in 96-well immune plates (NUNC, 439454) at 100 μl per well, and coated for 16 hours at 4° C. It was then blocked with skim milk diluted 4% in PBS for 1 hour at 37° C. Antibody proteins were diluted in 1% skim milk diluted in PBS to 1, 10, and 100 nM, respectively, at 100 μl per well and incubated for 2 hours at 37° C. After washing with PBS-T, anti-human Fc-HRP (Pierce® Peroxidase Conjugated Goat Anti-Human IgG FC (thermo fisher scientific, 31413)) was diluted at 1:10,000 dilution and reacted for 1 hour at 37° C. as a secondary antibody. After PBS-T washing, 100 μl of TMB (sigma, T0440) solution was applied to each well for a 10 min substrate reaction. After 10 minutes, the substrate reaction was stopped by treating each well with 50 μl of 1N H₂SO₄ and measured at 490 nm using a spectrophotometer (thermo fisher scientific, 51119200).

| Binder | Kd (resistin antigen) | binding result [1] |
| --- | --- | --- |
| RETN-5A2 (antibody, human IgG1, V domains shown, Human antibody from scFv phage library, converted to IgG and made in HEK293F cells; also called parent antibody 5A2; resistin 5A2 parent antibody) VH: QVQLVQSGAEGRKPGSSVKVSCKVSGDTFSSYAISWVRQAPGQGLEWMGGIIPIFGAADYAQKFKGRVTISADESTSTAYMELSSLRSEDTAVYYCAKGPDYYGSFDPWGQGTLITVSS VL: DIQMTQSPSFLSASVGDRVTITCRASQYIGTYLAWYQQQPGKAPKLLIYGASILQNGVPSRFSGSASGTEFTLTISSLQPEDFATYYCQQADSFPLTFGGGTKVDIKR | ≤ 1 nM | no binding (tested: antibody at 1, 10 and 100 nM) |
| RETN-5A2_LS_2G03 (antibody, human IgG1, V domains shown, Light chain shuffled variant of RETN-5A2, tested as IgG) VH: QVQLVQSGAEGRKPGSSVKVSCKVSGDTFSSYAISWVRQAPGQGLEWMGGIIPIFGAADYAQKFKGRVTISADESTSTAYMELSSLRSEDTAVYYCAKGPDYYGSFDPWGQGTLITVSS VL: DIQMTQSPSSLSASVGDRVTITCQASQHVSSYLNWYQQKPGKAPKLLIYAASNLQSGVPSRFSGSGSGTDFTLTISSLQPDDFATYYCQQYDSYSSVYTFGPGTKLDIKR | ≤ 1 nM | – |
| RETN-5A2_LS_2D07 (antibody, human IgG1, V domains shown, Light chain shuffled variant of RETN-5A2, tested as IgG) VH: QVQLVQSGAEGRKPGSSVKVSCKVSGDTFSSYAISWVRQAPGQGLEWMGGIIPIFGAADYAQKFKGRVTISADESTSTAYMELSSLRSEDTAVYYCAKGPDYYGSFDPWGQGTLITVSS VL: QSALTQPASVSGSPGQSVTISCTGTSSDIGRYNRVSWYQHHPGKAPKLIIYDVSNRPSGVSNRFSGSKSGNTASLTISGLQAGDESDYYCSAYTRSSTWVFGGGTKLTVLR | ≤ 1 nM | – |
| RETN-5A2_LS_2B02 (antibody, human IgG1, V domains shown, Light chain shuffled variant of RETN-5A2, tested as IgG) VH: QVQLVQSGAEGRKPGSSVKVSCKVSGDTFSSYAISWVRQAPGQGLEWMGGIIPIFGAADYAQKFKGRVTISADESTSTAYMELSSLRSEDTAVYYCAKGPDYYGSFDPWGQGTLITVSS VL: DIQMTQSPGTLSLSAGERATLSCRASQSVRGSYLAWYQQKPGQAPRLLIYGTSSRAPGIPDRFSGSGSGTDFTLTISSLEPEDFAVYYCQQRGDWLYTFGQGTKVEIKR | ≤ 1 nM | – |
| RETN-5A2_LS_2H10 (antibody, human IgG1, V domains shown, Light chain shuffled variant of RETN-5A2, tested as IgG) VH: QVQLVQSGAEGRKPGSSVKVSCKVSGDTFSSYAISWVRQAPGQGLEWMGGIIPIFGAADYAQKFKGRVTISADESTSTAYMELSSLRSEDTAVYYCAKGPDYYGSFDPWGQGTLITVSS VL: NFMLTQPASVSGSPGQSITISCTGSSSDVGGYNYVTWYQQHPGKAPQLIIYDVTKRPSGVSNRFSGSKSGNSASLTISGLQAEDEADYYCSSYSSSTFYVFGTGTKVTVLR | ≤ 1 nM | – |
| RETN-5A2_LS_2E10 (antibody, human IgG1, V domains shown, Light chain shuffled variant of RETN-5A2, tested as IgG) VH: QVQLVQSGAEGRKPGSSVKVSCKVSGDTFSSYAISWVRQAPGQGLEWMGGIIPIFGAADYAQKFKGRVTISADESTSTAYMELSSLRSEDTAVYYCAKGPDYYGSFDPWGQGTLITVSS VL: DIQMTQSPSSLSASVGDRVTITCRTSQTITNYLNWYQQKPGRAPKLLIFDASNLETGVPSRFSGSGSGTDFTLTISSLQPEDFATYFCQQSYNPGYTFGQGTKLEIKR | ≤ 1 nM | – |
| RETN-5A2_LS_2F11 (antibody, human IgG1, V domains shown, Light chain shuffled variant of RETN-5A2, tested as IgG) VH: QVQLVQSGAEGRKPGSSVKVSCKVSGDTFSSYAISWVRQAPGQGLEWMGGIIPIFGAADYAQKFKGRVTISADESTSTAYMELSSLRSEDTAVYYCAKGPDYYGSFDPWGQGTLITVSS VL: DIQMTQSPSSLSASVGDRVTITCRASQSIGTYLNWYQQKPGKAPKLLIYDASSLEDGVPSRFSGSGSGTDFTLTISSLQPEDSATYYCQQSYTMPLYTFGQGTKLEIKR | ≤ 1 nM | – |
| RETN-5A2_LS_1F11 (antibody, human IgG1, V domains shown, Light chain shuffled variant of RETN-5A2, tested as IgG) VH: QVQLVQSGAEGRKPGSSVKVSCKVSGDTFSSYAISWVRQAPGQGLEWMGGIIPIFGAADYAQKFKGRVTISADESTSTAYMELSSLRSEDTAVYYCAKGPDYYGSFDPWGQGTLITVSS VL: not shown | ≤ 1 nM | – |
